{"source": "patent US20190144863", "biological_target": "EZH2 (UniProt Q61188)", "sequence (Q61188 whole entry)": "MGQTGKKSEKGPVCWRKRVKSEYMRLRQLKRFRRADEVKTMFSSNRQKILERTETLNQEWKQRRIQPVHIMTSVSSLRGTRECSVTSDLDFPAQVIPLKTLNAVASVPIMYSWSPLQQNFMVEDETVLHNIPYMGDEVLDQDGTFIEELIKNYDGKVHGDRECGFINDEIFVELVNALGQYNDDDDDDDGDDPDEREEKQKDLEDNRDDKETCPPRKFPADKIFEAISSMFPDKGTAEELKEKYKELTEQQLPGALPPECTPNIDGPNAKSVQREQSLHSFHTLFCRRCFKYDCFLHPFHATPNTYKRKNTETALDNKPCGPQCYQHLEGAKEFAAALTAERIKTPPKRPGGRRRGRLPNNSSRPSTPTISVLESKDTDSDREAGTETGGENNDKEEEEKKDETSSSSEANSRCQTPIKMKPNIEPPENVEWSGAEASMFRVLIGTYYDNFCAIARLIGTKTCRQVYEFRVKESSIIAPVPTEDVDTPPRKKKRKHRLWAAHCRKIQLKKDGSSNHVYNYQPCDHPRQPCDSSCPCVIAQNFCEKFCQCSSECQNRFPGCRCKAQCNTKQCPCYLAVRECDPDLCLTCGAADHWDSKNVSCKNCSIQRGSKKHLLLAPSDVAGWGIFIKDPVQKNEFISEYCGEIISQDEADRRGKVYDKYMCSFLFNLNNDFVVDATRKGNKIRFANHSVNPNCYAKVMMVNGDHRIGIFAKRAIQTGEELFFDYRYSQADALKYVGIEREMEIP", "assay": "filter", "settings": "negative control RNA"}
{"substance": "P4P6 RNA", "values": [{"measurement": "Kd", "result": "> 3000", "unit": "nM"}]}
